Experimental data taken from patent US20140087995A1 (published 2014).
Numbered stars: 1 amine (or outer) side, 2 acyl side, 3 side chain; on linkers, the order of the positions; unused ones are H or OH. Bridge positions count the residues as written; N and C are the ends. Side chains are listed from the residue outwards. Ends that are not written are not given here. * marks the point of attachment. C20 diacid = O=C(O)CCCCCCCCCCCCCCCCCCC(=O)*; γGlu = O=C(O)[C@H](CCC(=O)[*:2])N[*:1]; AEEA = NCCOCCOCC(=O)O

T1: rat calcitonin receptor (rat, UniProt P32214 25-516)
T1 construct: whole, on cells; Used as membranes prepared from the transfected cells; also called rCTR; rCT
T1 sequence (looked up): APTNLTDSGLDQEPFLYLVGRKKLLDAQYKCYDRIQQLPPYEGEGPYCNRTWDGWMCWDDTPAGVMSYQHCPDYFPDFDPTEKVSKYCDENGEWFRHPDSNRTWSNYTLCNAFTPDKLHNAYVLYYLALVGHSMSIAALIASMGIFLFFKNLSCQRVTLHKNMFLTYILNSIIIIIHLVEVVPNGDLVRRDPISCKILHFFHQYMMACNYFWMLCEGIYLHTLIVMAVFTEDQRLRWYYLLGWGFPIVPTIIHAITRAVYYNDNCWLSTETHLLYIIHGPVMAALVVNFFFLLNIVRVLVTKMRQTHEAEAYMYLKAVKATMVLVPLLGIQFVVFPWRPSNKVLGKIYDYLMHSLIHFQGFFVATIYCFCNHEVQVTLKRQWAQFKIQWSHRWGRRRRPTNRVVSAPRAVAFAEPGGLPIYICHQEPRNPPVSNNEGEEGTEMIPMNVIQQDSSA

T2: human calcitonin receptor (human, UniProt P30988 25-474)
T2 construct: whole, on cells; Used as membranes prepared from the transfected cells; also called hCTR; hCT
T2 sequence (looked up): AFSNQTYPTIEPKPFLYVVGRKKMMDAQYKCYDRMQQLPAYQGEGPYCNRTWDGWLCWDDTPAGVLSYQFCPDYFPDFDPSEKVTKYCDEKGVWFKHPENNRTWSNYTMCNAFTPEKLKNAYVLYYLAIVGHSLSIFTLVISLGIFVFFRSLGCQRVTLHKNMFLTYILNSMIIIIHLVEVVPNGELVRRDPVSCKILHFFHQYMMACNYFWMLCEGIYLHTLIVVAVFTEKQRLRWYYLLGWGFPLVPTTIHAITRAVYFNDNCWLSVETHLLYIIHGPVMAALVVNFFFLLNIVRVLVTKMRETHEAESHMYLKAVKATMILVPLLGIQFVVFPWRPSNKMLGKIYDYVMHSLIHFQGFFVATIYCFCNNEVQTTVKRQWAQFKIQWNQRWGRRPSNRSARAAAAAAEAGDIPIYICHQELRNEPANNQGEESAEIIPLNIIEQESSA


What was measured:
rat calcitonin receptor [1] = biological target: T1, rat calcitonin receptor; assay: SPA competition with 125I-calcitonin, membranes with rat calcitonin receptor (Assay VIII)
rat calcitonin receptor [2] = biological target: T1, rat calcitonin receptor; assay: ratio of binding IC50 at rat calcitonin receptor to IC50 at rat amylin receptor (reference)
[3] = biological target: T2, human calcitonin receptor; assay: ratio of binding IC50 at human calcitonin receptor to IC50 at human amylin receptor (reference)
Method in brief: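 Scintillation proximity competition binding on cell membranes at 35 ng/μL with SPA beads, in 50 mM Hepes pH 7.4, 1 mM CaCl2, 5 mM MgCl₂, 0.1% OA, 0.02% Tween20. Incubated 120 min at 25° C with shaking. IC₅₀ from one-site competition fit.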

Row | Binder | IC50 (rat calcitonin receptor [1]) | Ratio rCT/rAmylin binding (rat calcitonin receptor [2]) | Ratio hCT/hAmylin binding [3]
1 | K([γGlu-γGlu-C20 diacid])CNTATCATQRLAHFLRHSSPNFGAIPSSTNVGSNTY-NH2 (disulfide 2-7; N-terminus assumed; SMILES CC[C@H](C)[C@H](NC(=O)[C@H](C)NC(=O)CNC(=O)[C@H](Cc1ccccc1)NC(=O)[C@H](CC(N)=O)NC(=O)[C@@H]1CCCN1C(=O)[C@H](CO)NC(=O)[C@H](CO)NC(=O)[C@H](Cc1c[nH]cn1)NC(=O)[C@H](CCCNC(=N)N)NC(=O)[C@H](CC(C)C)NC(=O)[C@H](Cc1ccccc1)NC(=O)[C@H](Cc1c[nH]cn1)NC(=O)[C@H](C)NC(=O)[C@H](CC(C)C)NC(=O)[C@H](CCCNC(=N)N)NC(=O)[C@H](CCC(N)=O)NC(=O)[C@@H](NC(=O)[C@H](C)NC(=O)[C@@H]1CSSC[C@H](NC(=O)[C@@H](N)CCCCNC(=O)CC[C@H](NC(=O)CC[C@H](NC(=O)CCCCCCCCCCCCCCCCCCC(=O)O)C(=O)O)C(=O)O)C(=O)N[C@@H](CC(N)=O)C(=O)N[C@@H]([C@@H](C)O)C(=O)N[C@@H](C)C(=O)N[C@@H]([C@@H](C)O)C(=O)N1)[C@@H](C)O)C(=O)N1CCC[C@H]1C(=O)N[C@@H](CO)C(=O)N[C@@H](CO)C(=O)N[C@H](C(=O)N[C@@H](CC(N)=O)C(=O)N[C@H](C(=O)NCC(=O)N[C@@H](CO)C(=O)N[C@@H](CC(N)=O)C(=O)N[C@H](C(=O)N[C@@H](Cc1ccc(O)cc1)C(N)=O)[C@@H](C)O)C(C)C)[C@@H](C)O, Analogue of human amylin; disulfide and C-terminal amide as told for h-amylin; also called compound 92) | 104 nM | 156 | 145
2 | K([γGlu-γGlu-C20 diacid])CNTATCATQRLAEFLRHSSPNFGAIPSSTNVGHNTY-NH2 (disulfide 2-7; N-terminus assumed; SMILES CC[C@H](C)[C@H](NC(=O)[C@H](C)NC(=O)CNC(=O)[C@H](Cc1ccccc1)NC(=O)[C@H](CC(N)=O)NC(=O)[C@@H]1CCCN1C(=O)[C@H](CO)NC(=O)[C@H](CO)NC(=O)[C@H](Cc1c[nH]cn1)NC(=O)[C@H](CCCNC(=N)N)NC(=O)[C@H](CC(C)C)NC(=O)[C@H](Cc1ccccc1)NC(=O)[C@H](CCC(=O)O)NC(=O)[C@H](C)NC(=O)[C@H](CC(C)C)NC(=O)[C@H](CCCNC(=N)N)NC(=O)[C@H](CCC(N)=O)NC(=O)[C@@H](NC(=O)[C@H](C)NC(=O)[C@@H]1CSSC[C@H](NC(=O)[C@@H](N)CCCCNC(=O)CC[C@H](NC(=O)CC[C@H](NC(=O)CCCCCCCCCCCCCCCCCCC(=O)O)C(=O)O)C(=O)O)C(=O)N[C@@H](CC(N)=O)C(=O)N[C@@H]([C@@H](C)O)C(=O)N[C@@H](C)C(=O)N[C@@H]([C@@H](C)O)C(=O)N1)[C@@H](C)O)C(=O)N1CCC[C@H]1C(=O)N[C@@H](CO)C(=O)N[C@@H](CO)C(=O)N[C@H](C(=O)N[C@@H](CC(N)=O)C(=O)N[C@H](C(=O)NCC(=O)N[C@@H](Cc1c[nH]cn1)C(=O)N[C@@H](CC(N)=O)C(=O)N[C@H](C(=O)N[C@@H](Cc1ccc(O)cc1)C(N)=O)[C@@H](C)O)C(C)C)[C@@H](C)O, Analogue of human amylin; disulfide and C-terminal amide as told for h-amylin; also called compound 87) | 94.5 nM | 45.6 | 35.6

Stronger by IC50 (rat calcitonin receptor [1]), values ahead:

Row | IC50 (rat calcitonin receptor [1]) | Ratio rCT/rAmylin binding (rat calcitonin receptor [2]) | Ratio hCT/hAmylin binding [3] | Binder
3 | 34.2 nM | 96.5 | 60.8 | K([γGlu-C20 diacid])CNTATCATQRLAHFLRHSSPNFGAIPSSTNVGSNTY-NH2 (disulfide 2-7; N-terminus assumed; SMILES CC[C@H](C)[C@H](NC(=O)[C@H](C)NC(=O)CNC(=O)[C@H](Cc1ccccc1)NC(=O)[C@H](CC(N)=O)NC(=O)[C@@H]1CCCN1C(=O)[C@H](CO)NC(=O)[C@H](CO)NC(=O)[C@H](Cc1c[nH]cn1)NC(=O)[C@H](CCCNC(=N)N)NC(=O)[C@H](CC(C)C)NC(=O)[C@H](Cc1ccccc1)NC(=O)[C@H](Cc1c[nH]cn1)NC(=O)[C@H](C)NC(=O)[C@H](CC(C)C)NC(=O)[C@H](CCCNC(=N)N)NC(=O)[C@H](CCC(N)=O)NC(=O)[C@@H](NC(=O)[C@H](C)NC(=O)[C@@H]1CSSC[C@H](NC(=O)[C@@H](N)CCCCNC(=O)CC[C@H](NC(=O)CCCCCCCCCCCCCCCCCCC(=O)O)C(=O)O)C(=O)N[C@@H](CC(N)=O)C(=O)N[C@@H]([C@@H](C)O)C(=O)N[C@@H](C)C(=O)N[C@@H]([C@@H](C)O)C(=O)N1)[C@@H](C)O)C(=O)N1CCC[C@H]1C(=O)N[C@@H](CO)C(=O)N[C@@H](CO)C(=O)N[C@H](C(=O)N[C@@H](CC(N)=O)C(=O)N[C@H](C(=O)NCC(=O)N[C@@H](CO)C(=O)N[C@@H](CC(N)=O)C(=O)N[C@H](C(=O)N[C@@H](Cc1ccc(O)cc1)C(N)=O)[C@@H](C)O)C(C)C)[C@@H](C)O, Analogue of human amylin; disulfide and C-terminal amide as told for h-amylin; also called compound 70) [N^ε1-[(4S)-4-carboxy-4-(19-carboxynonadecanoylamino)butanoyl]-[His14,Arg17,Pro21,Pro27]-h-amylin]
4 | 18.2 nM | 74.1 | 42.2 | K([AEEA-C20 diacid])CNTATCATQRLAHFLRHSSPNFGAIPSSTNVGSNTY-NH2 (disulfide 2-7; N-terminus assumed; SMILES CC[C@H](C)[C@H](NC(=O)[C@H](C)NC(=O)CNC(=O)[C@H](Cc1ccccc1)NC(=O)[C@H](CC(N)=O)NC(=O)[C@@H]1CCCN1C(=O)[C@H](CO)NC(=O)[C@H](CO)NC(=O)[C@H](Cc1c[nH]cn1)NC(=O)[C@H](CCCNC(=N)N)NC(=O)[C@H](CC(C)C)NC(=O)[C@H](Cc1ccccc1)NC(=O)[C@H](Cc1c[nH]cn1)NC(=O)[C@H](C)NC(=O)[C@H](CC(C)C)NC(=O)[C@H](CCCNC(=N)N)NC(=O)[C@H](CCC(N)=O)NC(=O)[C@@H](NC(=O)[C@H](C)NC(=O)[C@@H]1CSSC[C@H](NC(=O)[C@@H](N)CCCCNC(=O)COCCOCCNC(=O)CCCCCCCCCCCCCCCCCCC(=O)O)C(=O)N[C@@H](CC(N)=O)C(=O)N[C@@H]([C@@H](C)O)C(=O)N[C@@H](C)C(=O)N[C@@H]([C@@H](C)O)C(=O)N1)[C@@H](C)O)C(=O)N1CCC[C@H]1C(=O)N[C@@H](CO)C(=O)N[C@@H](CO)C(=O)N[C@H](C(=O)N[C@@H](CC(N)=O)C(=O)N[C@H](C(=O)NCC(=O)N[C@@H](CO)C(=O)N[C@@H](CC(N)=O)C(=O)N[C@H](C(=O)N[C@@H](Cc1ccc(O)cc1)C(N)=O)[C@@H](C)O)C(C)C)[C@@H](C)O, Analogue of human amylin; disulfide and C-terminal amide as told for h-amylin; also called compound 90) [N^ε1-[2-[2-[2-(19-carboxynonadecanoylamino)ethoxy]ethoxy]acetyl]-[His14,Arg17,Pro21,Pro27]-h-amylin]
